# Reference: the supplement of paper PMC9170038
# Test system: MS2 coat protein
# Assay: apparent KD of MS2 coat protein; designed switch direction (-1 OFF switch, 1 ON switch): -1; higher = weaker reporter binding
# Method in brief: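 The buffer was Tris-HCl pH 7.5 with KCl, MgCl2, BSA, DTT, tRNA and Tween-20. In it, SNAP-549-labelled MS2 coat protein was titrated in doubling steps from 0.7 or 1.5 nM to 3 µM over chip-bound RNA switches transcribed by stalled E. coli RNA polymerase on Illumina chips. Apparent KD is the per-design median over clusters of curve fits to normalised fluorescence.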
# [1] = Eterna round: R95, input ligand: microRNA oligo, concentration not stated
# [2] = input ligand: microRNA oligo, concentration not stated
# [3] = Eterna round: R95, input ligand: FMN 200 uM
# [4] = Eterna round: R95, input ligand: none
Sequence,apparent KD of MS2 coat protein [1] [nM],apparent KD of MS2 coat protein (input ligand: FMN 200 uM) [nM],apparent KD of MS2 coat protein [2] [nM],apparent KD of MS2 coat protein (input ligand: none) [nM],apparent KD of MS2 coat protein [3] [nM],apparent KD of MS2 coat protein [4] [nM]
GAUUGACAUGAGGAUCACCCAUGUGAGGAUAUCGGCCGGACCUUGUUAGCUUCCAUCGUGAGAAGGCACAUAGG [Exclusion 1 V35] (puzzle: Exclusion 1),26.9,,,,,
"AUAAUAUAUGUAGGAUAUCUGCACGAUUAGUGCAGAGAAGGACAUGAGGAUCACCCAUGUAAUUAAGAUCAAUUAUUAAAUUAU [ENG1/4-B1] (Eterna round: R96, puzzle: Exclusion NG 1)",,84.3,24.6,35.4,,
"ACACAGCGAGGAUAUACAUGAGGAUCACCCAUGUGGCGGCCGUUACGGUAGGACUAGUGUAGAAGGCGCAUUGG [EX3 #34] (Eterna round: R97, puzzle: Exclusion 3)",,203,,247,,
"UCACGGGACUGAGGAUAUACAUGAAUUAUUUUUGUAGAAGGCAGAAUGUUAGAUUAUACACUAUACAUGAGGAUCACCCAUGUU [JR_ExcNG1_Sub023] (Eterna round: R96, puzzle: Exclusion NG 1)",,16.1,20.5,19.7,,
"UAACAUGUACAAGGAUAUCAGCACGAUUAGUGCUGAGAAGGUGUAACAUGAGGAUCACCCAUGUAGAUCAUUAAUUAAUUAAUU [ENG1/9-B1] (Eterna round: R96, puzzle: Exclusion NG 1)",,319,60.9,56.6,,
"ACAUGAGGAUCACCCAUGUCCGGCUGGUCUGUUUCGGCUGUCGAGGAUAUAGUUCGGUGUUCGCGCUAGAAGGUGGGAGCUGGC [Aenatbe mod 58] (Eterna round: R96, puzzle: Exclusion NG 3)",,160,106,134,,
"AGAGAAUAGGUAGGAUAUCUUAAUAGAAAGAAUAGAGAAGGACCACAUGAGGAUCACCCAUGUGAAGUCUUGAGACUACAUGGU [Prohibition 31 - Jieux - Exclusion NG 1] (Eterna round: R96, puzzle: Exclusion NG 1)",,,15,,,
UACUAAAAGGAGGAUAUCGUAUCGGAGACGAUACGAGAAGGCUUAACAUGAGGAUCACCCAUGUUCUUCAAUAU [Mat - Exclusion 6 - Eli Mod - D96] (puzzle: Exclusion 6),14.8,,,,,
"UACCUGAGGCAAAGCUUUAGGCUUACAUGAGGAUCACCCAUGUAGGAUAUGGUAGGCUUUGCUUACCAGAAGGACAUGGAAAUU [Mat - Exclusion NG 3 - Mod of JL - D22] (Eterna round: R96, puzzle: Exclusion NG 3)",,64.3,18,19.1,,
"AGCCUCUAAGGAUAUACAUGAGGAUCACCCAUGUACUUAGAAGGGAAACCUUCUAUAUGUAGAAGGUAGAAGCA [Exclusion 3 S1] (Eterna round: R97, puzzle: Exclusion 3)",,16,,12.7,,
"CAUAGCCGUGUAAGGAUAUCCGAUCCACGGGACAAGGAGAAGGUACAUGAGGAUCACCCAUGUAAGGGUUCCUA [Vecequve] (Eterna round: R97, puzzle: Brourd's mod of Exclusion 4)",,22.9,,21.7,,
CUUUUGGCAGGAUAUGCUUUUUUUGACAUGAGGAUCACCCAUGUGAUGCAUUUUGGGUUUGCAGAAGGGCCUGAGU [JR_E5_Sub036] (puzzle: Exclusion 5),56.9,,,,,
"GAUUAACAUGAGGAUCACCCAUGUGAGGAUAUGGACUUGCUCACUUUCCGAUUCGAGUCUAGAAGGCGCAUCUU [1986#116] (Eterna round: R97, puzzle: Exclusion 1)",,30.6,,27.1,,
"CUGAGGUAGCGGUCCUAUGACAUGAGGAUCACCCAUGUACCUUGCUUCGAGCUUUUAGCUCGUCUUAUGAUUCUCGG [Mat - Sensor v3 - turn-off var 1 - JL Mod - D36] (puzzle: Sensor v3, turn-off variant 1)",502,,,,423,522
"UACAUGAGGAUCACCCAUGUCGGGUAAACGAAGGUUACUCAAGAGGAUAUAAAACCGAAAGGGUUUUAGAAGGCUUUUCCUCGA [Eternabot solution 27] (Eterna round: R96, puzzle: Exclusion NG 3)",,92.3,46,86.7,,
"UGAGUACUGCGAGGAUAUACAUGAGGAUCACCCAUGUAAUAGUGUGAGGCUUUGCCUCACACAAUGUAGAAGGCGCAGUACUCU [Mat - Exclusion NG 2 - Mod of JL - D5] (Eterna round: R96, puzzle: Exclusion NG 2)",,15.5,9.63,11.8,,
UUAUACGUUGAGGAUAUGCGAAUAAGUAUAGUUGCAGAAGGCGAUACAUGAGGAUCACCCAUGUUCAUGGACAU [LRO-Ex6-04] (puzzle: Exclusion 6),106,,,,,

Sequence,apparent KD of MS2 coat protein [1] [nM],apparent KD of MS2 coat protein (input ligand: FMN 200 uM) [nM],apparent KD of MS2 coat protein [2] [nM],apparent KD of MS2 coat protein (input ligand: none) [nM],apparent KD of MS2 coat protein [3] [nM],apparent KD of MS2 coat protein [4] [nM]
"CACCUGAGAGGAUAUACGUUGAUGUUAUGCUAUGGAAAGUUACAUGAGGAUCACCCAUGUAGAAGGCUCAGGUA [Eternabot (L2) Solution 48] (Eterna round: R97, puzzle: Exclusion 2)",,75.4,,18.8,,
"UUUUUAAAUGAAGGAUAUACUUAACAUGAGGAUCACCCAUGUGGUGUUGUGAGUGAGUGAGUUUAGUAGAAGGUCAAUGAUUUU [JMF's solution 65] (Eterna round: R96, puzzle: Exclusion NG 2)",,1250,196,211,,
CCAGCGUAUGUGAGGAUAUGCUGGUCCUUGGAUCAGCAGAAGGCACAUGAGGAUCACCCAUGUAGAGACGUUGG [JL bmx4 3.43] (puzzle: Brourd's mod of Exclusion 4),21.6,,,,,
"AGCUGUGGCCGAGGAUAUCCAGCCUUAAAUACCGACGUAUAGUCGGACAUGAGGAUCACCCAUGUGGAGAAGGUGGUCUCAGCA [Eli eng2 - 041] (Eterna round: R96, puzzle: Exclusion NG 2)",,93.1,41.8,42.7,,
AGUUGGCGAGGAUAUACAUGAGGAUCACCCAUGUGAAUAAGAAUAGUGAGGAAGAAAAGUAGAAGGCGCUGACA [Mat - Exclusion 3 - Mod of Salish D36] (puzzle: Exclusion 3),39.8,,,,237,44.5
"CAGUACUGAGGAUAUACAUGAGGAUCACCCAUGUGUUCCAGCUAGGAAACUAGCAAGUGUAGAAGGCAGUACUG [Salish 065 m7] (Eterna round: R97, puzzle: Exclusion 3)",,1090,,410,,
"UGAGACUGAGGAUAUACUAGCCCAUAAAGUGGGUAGUGGGUACAUGAGGAUCACCCAUGUAGAAGGCAGCCUCG [Omei Repeat Sequence v2] (Eterna round: R97, puzzle: Exclusion 2)",,251,,29.4,,
"UAUUUGCAAGCGAGAUCCCACAUGAGGAUCACCCAUGUGCUCGUCUUAUAAGGUACUGUGACGAGAGUCACGGUACC [Mat - Sensor, turn-off var - Eli Mod - D90] (Eterna round: R97, puzzle: Sensor, turn-off variant 1)",,15,,15.6,,
"GGAGCGGCAGGAUAUACAUGAGGAUCACCCAUGUAAAGAAGGGUAAGAAACCACCUCGGUAGAAGGGCCAGGAG [AK-MS2ROC-r4-exclusion3-10] (Eterna round: R97, puzzle: Exclusion 3)",,191,,94.5,,
"GACCUAUAGGUAGGAUAUCAUUGCGAUUAGCUAUGAGAAGGACCACAUGAGGAUCACCCAUGUCCUCCAAUUAGCCAUUUGGUC [Fiskers ExNg1 - 7] (Eterna round: R96, puzzle: Exclusion NG 1)",,196,47,58.3,,
"GUCGUGUUAGGAUAUGGCAACGGCUAGUAAACUAGUUGUUGUUAGAAGGAACAUGAGGAUCACCCAUGUAUGAC [-24.6, -24.1 kcal, A 30%] (Eterna round: R97, puzzle: Exclusion 4)",,98.1,,34.4,,
"UCUUUCUUUGUGAGGAUAUGCCCAAAUAAAAGCGGGCAGAAGGCACAUGAGGAUCACCCAUGUCCUGCGGUUUU [salish99_bmx4_r4_147] (Eterna round: R97, puzzle: Brourd's mod of Exclusion 4)",,174,,16.5,,
"GCUGGACAAGGAUAUGCAAUCGUGCUUCGGCACGUAAGAUCACAUGAGGAUCACCCAUGUAGAAGGUGUCCAGC [E2/3-C2] (Eterna round: R97, puzzle: Exclusion 2)",,62.5,,24,,
CCGCAUGCUGUCAGGAUAUCGUAGAUAAUAAUAUGCGAGAAGGGACAUGAGGAUCACCCAUGUAAGAGGCGGCC [Design for Riboswitch] (puzzle: Brourd's mod of Exclusion 4),24.4,,,,,
"GUGAGAUAGUUAGUGGACGACAUGAGGAUCACCCAUGUGAGGGAAAUGUUGAGGAGAAAGCUUUUUGCUCGUCUUUA [JR_SV3TOV1_Sub036] (puzzle: Sensor v3, turn-off variant 1)",87.4,,,,90.8,119
"AAAAGGCAGGGAGGAUAUGCUUACCUGGGUCGUCUUCAAACAUGAGGAUCACCCAUGUAGUCGACGCAGAAGGCCCUCAAAGCC [Mat - Exclusion NG 2 - Mod of JL - D58] (Eterna round: R96, puzzle: Exclusion NG 2)",,39.6,21.2,22.7,,
